The values below come from publication PMC9910500.

The target in this experiment is endogenous p32 (ASF/SF2 splicing factor-associated protein) (human (endogenous in HEK293T)) (UniProt Q07021). In words: co-IP.
Chain of UniProt Q07021 (Q07021 74-282): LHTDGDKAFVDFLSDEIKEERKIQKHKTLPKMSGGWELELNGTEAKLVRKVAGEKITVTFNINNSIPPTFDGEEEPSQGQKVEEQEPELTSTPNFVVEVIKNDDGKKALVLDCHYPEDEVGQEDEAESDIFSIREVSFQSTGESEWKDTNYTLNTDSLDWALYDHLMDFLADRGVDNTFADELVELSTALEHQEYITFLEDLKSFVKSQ

For RNA polymerase II (RNAPII) (complex), the increase of RNAPII co-precipitated with p32 in the presence of Tat amounted to 50%.
